# In paper PMC8228192, “Parallel and Sequential Pathways of Molecular Recognition of a Tandem-Repeat Protein and Its Intrinsically Disordered Binding Partner” (Biomolecules, 2021):
# Positions count from the first letter of the chain named. Numbers in names are those of the source. No end group written: not given here.
# T1: ARM repeat domain of human β-catenin (residues 134–671) (human, UniProt P35222 134-671)
# T1 construct: β-catenin, human, ARM repeat domain, residues 134–671; Plasmid was a gift from W.I. Weis; source: E. coli C41, purified (glutathione-Sepharose 4B, thrombin cleavage on resin, Mono-Q)
# T1 sequence (looked up): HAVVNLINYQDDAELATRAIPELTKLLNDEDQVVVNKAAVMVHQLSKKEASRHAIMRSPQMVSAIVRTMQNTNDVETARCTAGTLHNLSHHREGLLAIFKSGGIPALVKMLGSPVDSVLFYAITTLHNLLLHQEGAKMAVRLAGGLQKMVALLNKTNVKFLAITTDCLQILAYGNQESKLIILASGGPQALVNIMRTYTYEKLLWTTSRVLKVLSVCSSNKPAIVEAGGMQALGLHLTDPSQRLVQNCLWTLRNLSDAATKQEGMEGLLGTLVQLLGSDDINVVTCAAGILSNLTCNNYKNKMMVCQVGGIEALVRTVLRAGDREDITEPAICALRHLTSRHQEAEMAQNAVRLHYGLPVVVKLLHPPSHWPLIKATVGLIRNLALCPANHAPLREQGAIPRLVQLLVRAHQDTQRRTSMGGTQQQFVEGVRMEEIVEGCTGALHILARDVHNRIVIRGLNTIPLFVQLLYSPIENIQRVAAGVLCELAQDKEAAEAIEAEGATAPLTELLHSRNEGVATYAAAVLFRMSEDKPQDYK
# B1: TCF7L2 (1–54), wild type, unlabelled (domain or fragment, UniProt Q9NQB0 1-54, looked up)
# chain: MPQLNGGGGDDLGANDELISFKDEGEQEEKSSENSSAERDLADVKSSLVNESET
# notes: also called wild-type TCF7L2 (1–54); source: E. coli C41, purified (Ni-NTA, thrombin cleavage, Superdex 75)
# B2: TCF7L2 (1–54) S31C I19A, fluorescein-labelled (domain or fragment, UniProt Q9NQB0 1-54, looked up)
# chain: MPQLNGGGGDDLGANDELASFKDEGEQEEKC(fluorescein maleimide)SENSSAERDLADVKSSLVNESET
# notes: One extra serine is left behind after thrombin cleavage of the tag; also called TCF7L2 I19A; source: E. coli C41, purified (Ni-NTA, thrombin cleavage, Superdex 75), labelled with fluorescein maleimide
# B3: TCF7L2 (1–54) S31C E17A, fluorescein-labelled (domain or fragment, UniProt Q9NQB0 1-54, looked up)
# chain: MPQLNGGGGDDLGANDALISFKDEGEQEEKC(fluorescein maleimide)SENSSAERDLADVKSSLVNESET
# notes: One extra serine is left behind after thrombin cleavage of the tag; source: E. coli C41, purified (Ni-NTA, thrombin cleavage, Superdex 75), labelled with fluorescein maleimide
# B4: TCF7L2 (1–54) S31C N15A, fluorescein-labelled (domain or fragment, UniProt Q9NQB0 1-54, looked up)
# chain: MPQLNGGGGDDLGAADELISFKDEGEQEEKC(fluorescein maleimide)SENSSAERDLADVKSSLVNESET
# notes: as for B3
# B5: TCF7L2 (1–54) S31C L12A, fluorescein-labelled (domain or fragment, UniProt Q9NQB0 1-54, looked up)
# chain: MPQLNGGGGDDAGANDELISFKDEGEQEEKC(fluorescein maleimide)SENSSAERDLADVKSSLVNESET
# notes: as for B3
# B6: TCF7L2 (1–54) S31C K45A, fluorescein-labelled (domain or fragment, UniProt Q9NQB0 1-54, looked up)
# chain: MPQLNGGGGDDLGANDELISFKDEGEQEEKC(fluorescein maleimide)SENSSAERDLADVASSLVNESET
# notes: as for B3
# B7: TCF7L2 (1–54) S31C E28A, fluorescein-labelled (domain or fragment, UniProt Q9NQB0 1-54, looked up)
# chain: MPQLNGGGGDDLGANDELISFKDEGEQAEKC(fluorescein maleimide)SENSSAERDLADVKSSLVNESET
# notes: as for B3
# B8: TCF7L2 (1–54) S31C, unlabelled (domain or fragment, UniProt Q9NQB0 1-54, looked up)
# chain: B1 chain with S31C
# notes: One extra serine is left behind after thrombin cleavage of the tag; also called WT; pseudo-wild type; source: E. coli C41, purified (Ni-NTA, thrombin cleavage, Superdex 75)
# B9: TCF7L2 (1–54) S31C L48A, fluorescein-labelled (domain or fragment, UniProt Q9NQB0 1-54, looked up)
# chain: MPQLNGGGGDDLGANDELISFKDEGEQEEKC(fluorescein maleimide)SENSSAERDLADVKSSAVNESET
# notes: as for B3
# B10: TCF7L2 (1–54) S31C D23A E24A E26A E28A E29A (5X), fluorescein-labelled (domain or fragment, UniProt Q9NQB0 1-54, looked up)
# chain: MPQLNGGGGDDLGANDELISFKAAGAQAAKC(fluorescein maleimide)SENSSAERDLADVKSSLVNESET
# notes: One extra serine is left behind after thrombin cleavage of the tag; also called quintuple mutant; 5X variant; source: E. coli C41, purified (Ni-NTA, thrombin cleavage, Superdex 75), labelled with fluorescein maleimide
# B11: TCF7L2 (1–54) S31C E24A E29A, fluorescein-labelled (domain or fragment, UniProt Q9NQB0 1-54, looked up)
# chain: MPQLNGGGGDDLGANDELISFKDAGEQEAKC(fluorescein maleimide)SENSSAERDLADVKSSLVNESET
# notes: One extra serine is left behind after thrombin cleavage of the tag; also called double mutant; source: E. coli C41, purified (Ni-NTA, thrombin cleavage, Superdex 75), labelled with fluorescein maleimide
# B12: TCF7L2 (1–54) S31C D23A, fluorescein-labelled (domain or fragment, UniProt Q9NQB0 1-54, looked up)
# chain: MPQLNGGGGDDLGANDELISFKAEGEQEEKC(fluorescein maleimide)SENSSAERDLADVKSSLVNESET
# notes: as for B3
# B13: TCF7L2 (1–54) S31C, labelled with fluorescein maleimide at Cys31 (domain or fragment, UniProt Q9NQB0 1-54, looked up)
# chain: MPQLNGGGGDDLGANDELISFKDEGEQEEKC(fluorescein maleimide)SENSSAERDLADVKSSLVNESET
# notes: One extra serine is left behind after thrombin cleavage of the tag; also called fluorescein-labelled WT; fluorescent-labelled WT TCF7L2 (1–54); source: E. coli C41, purified (Ni-NTA, thrombin cleavage, Superdex 75), labelled with fluorescein maleimide
# B14: TCF7L2 (1–54) S31C F21A, fluorescein-labelled (domain or fragment, UniProt Q9NQB0 1-54, looked up)
# chain: MPQLNGGGGDDLGANDELISAKDEGEQEEKC(fluorescein maleimide)SENSSAERDLADVKSSLVNESET
# notes: as for B3
# B15: TCF7L2 (1–54) S31C E24A, fluorescein-labelled (domain or fragment, UniProt Q9NQB0 1-54, looked up)
# chain: MPQLNGGGGDDLGANDELISFKDAGEQEEKC(fluorescein maleimide)SENSSAERDLADVKSSLVNESET
# notes: as for B3
# B16: TCF7L2 (1–54) S31C V44A, fluorescein-labelled (domain or fragment, UniProt Q9NQB0 1-54, looked up)
# chain: MPQLNGGGGDDLGANDELISFKDEGEQEEKC(fluorescein maleimide)SENSSAERDLADAKSSLVNESET
# notes: as for B3
# B17: TCF7L2 (1–54) S31C E26A, fluorescein-labelled (domain or fragment, UniProt Q9NQB0 1-54, looked up)
# chain: MPQLNGGGGDDLGANDELISFKDEGAQEEKC(fluorescein maleimide)SENSSAERDLADVKSSLVNESET
# notes: as for B3
# B18: TCF7L2 (1–54) S31C E29A, fluorescein-labelled (domain or fragment, UniProt Q9NQB0 1-54, looked up)
# chain: MPQLNGGGGDDLGANDELISFKDEGEQEAKC(fluorescein maleimide)SENSSAERDLADVKSSLVNESET
# notes: as for B3
# B19: TCF7L2 (1–54) S31C L41A, fluorescein-labelled (domain or fragment, UniProt Q9NQB0 1-54, looked up)
# chain: MPQLNGGGGDDLGANDELISFKDEGEQEEKC(fluorescein maleimide)SENSSAERDAADVKSSLVNESET
# notes: as for B3
# B20: TCF7L2 (1–54) S31C E38A, fluorescein-labelled (domain or fragment, UniProt Q9NQB0 1-54, looked up)
# chain: MPQLNGGGGDDLGANDELISFKDEGEQEEKC(fluorescein maleimide)SENSSAARDLADVKSSLVNESET
# notes: as for B3
# What was measured:
# Details in all cases: both partners purified
# [1] = molecular target: T1, ARM repeat domain of human β-catenin …; assay: ITC; β-catenin 2–4 µM in the cell, TCF7L2 18–40 µM in the syringe; PBS, 1 mM DTT, 30 °C; one-site binding fit
# [2] = molecular target: T1, ARM repeat domain of human β-catenin …; assay: stopped-flow fluorescence kinetics (dissociation); pre-formed 1:1 complex (200 nM) of labelled TCF7L2 and β-catenin mixed 1:1 with 50-times molar excess of unlabelled TCF7L2 (10 µM); PBS, 1 mM DTT, 15 °C; fitted to sums of exponential phases
# [3] = molecular target: T1, ARM repeat domain of human β-catenin …; assay: stopped-flow fluorescence kinetics (association); 10 nM fluorescein-labelled TCF7L2 mixed 1:1 with 100–1000 nM unlabelled β-catenin, pseudo-first-order; PBS, 1 mM DTT, 15 °C; kon from the linear fit of kobs against β-catenin concentration
# [4] = molecular target: T1, ARM repeat domain of human β-catenin …; assay: fluorescence spectroscopy kinetics (dissociation, fluorimeter); pre-formed 1:1 complex of labelled TCF7L2 and β-catenin mixed 1:1 with 50-times molar excess of unlabelled TCF7L2; PBS, 1 mM DTT, 15 °C; fitted to sums of exponential phases
Binder,binding result [1],"koff,major (major slow phase of biphasic dissociation) [2] [s⁻¹]","koff,minor (minor fast phase of biphasic dissociation) [2] [s⁻¹]",kon [3] [M⁻¹ s⁻¹],"koff,major (major slow phase of biphasic dissociation) [4] [s⁻¹]","koff,minor (minor fast phase of biphasic dissociation) [4] [s⁻¹]"
B1,binds,,,,,
B2,,0.011 ± 0.5,0.207 ± 10,7.04e+07 ± 0.52,,
B3,,,,6.3e+07 ± 0.42,0.00891 ± 2.9,0.0283 ± 1.9
B4,,,,6.25e+07 ± 0.23,0.000442 ± 0.15,0.00365 ± 0.83
B5,,,,7.19e+07 ± 0.13,0.000977 ± 0.75,0.00264 ± 0.2
B6,,,,1.031e+08 ± 0.19,0.00219 ± 0.4,0.015 ± 1.3
B7,,,,5.84e+07 ± 0.35,0.000496 ± 0.35,0.00116 ± 0.28
B8,binds,,,,,
B9,,,,5.67e+07 ± 0.6,0.00132 ± 0.1,0.00424 ± 0.13
B10,,,,4.26e+07 ± 0.17,0.000295 ± 0.23,0.00234 ± 0.33
B11,,,,6.13e+07 ± 0.34,0.000425 ± 0.29,0.00173 ± 0.14
B12,,,,5.31e+07 ± 0.25,0.0003 ± 0.16,0.00239 ± 0.7
B13,,,,7.33e+07 ± 0.14,0.000573 ± 0.4,0.00152 ± 0.28
B14,,0.0258 ± 2,0.423 ± 15,4.82e+07 ± 0.17,,
B15,,,,6.05e+07 ± 0.12,0.000503 ± 0.4,0.00153 ± 0.21
B16,,0.0742 ± 8,0.498 ± 70,5.05e+07 ± 0.46,,
B17,,,,5.59e+07 ± 0.22,0.000474 ± 0.3,0.00166 ± 0.16
B18,,,,5.73e+07 ± 0.43,0.000897 ± 0.44,0.00245 ± 0.21
B19,,0.0993 ± 17,0.616 ± 111,5.95e+07 ± 0.24,,
B20,,,,6.2e+07 ± 0.19,0.000539 ± 0.5,0.00261 ± 0.28
